From the supplement of paper PMC10126150
± gives the standard deviation of the averaged measurements.

Tested on: ATP
Experiment: switch fluorescence ratio, 500 uM ATP over buffer (Cy3 cluster intensity, sum of 5 cycles each) (fold (ratio)); higher = stronger signal-on switching upon ATP binding; sequences stand for … in TCGTCGGCAGCGTCAGATGTGTATAAGAGACAGTTTTTTTTTTTTTTTTTTTTTTTTT…TC
Settings: aptamer strand: ATP DNA aptamer (quencher-CACCTGGGGGAGTATTGCGGAGGAAGG + anchor), 100 nM annealed; ATP concentration: 500 uM
Method in brief: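 Clusters carrying Cy3-labelled switching strands on a modified Illumina MiSeq flow-cell were annealed to 100 nM quencher-labelled ATP aptamer and imaged in selection buffer. They were imaged again after 15 min with 500 uM ATP at 22 °C, over five buffer/ATP cycles with NaOH stripping and re-annealing in between. For each cluster, the fluorescence ratio is the summed Cy3 intensity of the target cycles divided by that of the buffer cycles, averaged per switch-domain sequence. Clusters outside 100-1000 RFU were left out.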
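Note: ATP exposure 15 min at 22 °C before imaging.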

| Sequence | switch fluorescence ratio |
| --- | --- |
| GGGATATATT | 0.9914 ± 0.0074 |
| TGAAGGCAGG | 1.01 ± 0.072 |
| CCCCGGCTGG | 1.125 ± 0.005 |
| CGCTTCTCTT | 1.03 ± 0.011 |
| TAAAGGGGAT | 1.08 ± 0.16 |
| ACCAAATTAT | 1.03 ± 0.058 |
| TAAAGAGGTG | 1.11 ± 0.053 |
| GACTATTATG | 1 ± 0.019 |
| AATCAAGGCG | 1.03 ± 0.1 |
| TTTTGCGGTC | 1.02 ± 0.053 |
| AGCTGATCTA | 0.986 ± 0.022 |
| TTTTGATTCC | 1.036 ± 0.009 |
| GTGATTCGGG | 0.972 ± 0.013 |
| AACTGCGCTG | 1.01 ± 0.035 |
| TTGGGTTCAC | 0.988 ± 0.01 |
| GTTGTCGGGT | 1.05 ± 0.12 |
| GAATGCGGAA | 1.0339 ± 0.00078 |
| ATCCGTAATT | 2.6 ± 0.22 |
| AAAGGATTTG | 0.97 ± 0.0034 |
| TAATACGTTT | 0.986 ± 0.032 |
| TCTGAGTAGG | 1 ± 0.037 |
| GTCTGGCAGT | 1.01 ± 0.043 |
| GCAATTGTTG | 1.021 ± 0.01 |
| CGGTAGGTGC | 0.976 ± 0.063 |
| TTTTAGGTGC | 1.09 ± 0.099 |
| TTTTATCTGA | 1.02 ± 0.028 |

| Sequence | switch fluorescence ratio |
| --- | --- |
| CAGCTTGATA | 0.979 ± 0.018 |
| GGGGCTTATC | 1.03 ± 0.043 |
| GAGGATTTAA | 1 ± 0.03 |
| TTTTCTGGTT | 0.97 ± 0.054 |
| CGTTTATTG | 0.9967 ± 0.0085 |
| ATTTTCATAT | 0.98 ± 0.021 |
| TGGTGGTATG | 1.01 ± 0.071 |
| ACAGTCGGTG | 1.028 ± 0.0066 |
| TAATGAGGGG | 0.992 ± 0.033 |
| ATGATAGCTT | 1 ± 0.026 |
| TAGCAGAGGG | 1.01 ± 0.023 |
| AGGACTTGTG | 0.972 ± 0.023 |
| AATTGTGAAA | 1.01 ± 0.013 |
| GAATAGGGCC | 1.01 ± 0.028 |
| GACGTAGT | 1.01 ± 0.022 |
| TCCATTAGAT | 1.019 ± 0.0066 |
| ATGCTAAAAG | 1.008 ± 0.0096 |
| ACGTGGGTAG | 0.987 ± 0.041 |
| GGGGACAAGT | 1.0212 ± 0.00058 |
| ATTTGCTCGG | 1.036 ± 0.0097 |
| TTGCTCAACT | 1 ± 0.026 |
| AGGTTCAGCA | 1 ± 0.013 |
| CCAGTAATGT | 1.04 ± 0.041 |
| GTTAGCACCC | 1.04 ± 0.04 |
| TACGGGGTTT | 0.996 ± 0.051 |
| CGGGTACGGT | 0.992 ± 0.022 |

| Sequence | switch fluorescence ratio |
| --- | --- |
| AGAAAAGCAG | 1.02 ± 0.015 |
| GTGTGGAGGG | 1.016 ± 0.0016 |
| ATTCGTTCGA | 0.9955 ± 0.0033 |
| TAATTATTAA | 1.01 ± 0.019 |
| CTTAGGCGGG | 1 ± 0.059 |
| ACGATTGGTA | 1.03 ± 0.092 |
| GGCCTGGGGT | 0.996 ± 0.029 |
| GTGACCCCTA | 1.13 ± 0.063 |
| AGTTGCCAGC | 0.994 ± 0.01 |
| GAGATTATGG | 0.966 ± 0.022 |
| GCTGTAAAGA | 0.983 ± 0.029 |
| TGATTCATTG | 1.034 ± 0.01 |
| TGTGGAGAGC | 0.999 ± 0.038 |
| CTCATATTCA | 1.02 ± 0.027 |
| ACTGGGGAGG | 1.01 ± 0.022 |
| CGGCCGAGGT | 1.02 ± 0.02 |
| CGGCATATAG | 1.99 ± 0.2 |
| ATAAAAGTCT | 1.03 ± 0.032 |
| AATCGGGGCT | 0.992 ± 0.013 |
| CGGGCAAGGG | 1.19 ± 0.029 |
| ATGTTTAATC | 0.986 ± 0.023 |
| TAAGGTTACT | 0.977 ± 0.035 |
| TAGACTTTAG | 1.0314 ± 0.0007 |
| GGGGGGCCTG | 0.982 ± 0.038 |
| GGAAACTAGG | 1.016 ± 0.003 |
| TTAGGCCAGG | 1.05 ± 0.017 |

| Sequence | switch fluorescence ratio |
| --- | --- |
| TCCTCAGGAT | 1.02 ± 0.018 |
| GATTGTCTTA | 0.979 ± 0.016 |
| AGGAGTTTCG | 1.01 ± 0.044 |
| AAGGGGGCGA | 0.982 ± 0.019 |
| TGGAAGGGG | 1.02 ± 0.015 |
| TTTTGCAGGT | 1.03 ± 0.026 |
| CCGGTAGGTA | 0.969 ± 0.011 |
| CAAGTCAAAG | 0.996 ± 0.039 |
| TGTATTATGT | 1.002 ± 0.004 |
| TGGGGGGAC | 1.01 ± 0.061 |
| TGAAGACATT | 1.02 ± 0.04 |
| ATCGTATATG | 0.972 ± 0.043 |
| TTTGGGGTCA | 1 ± 0.016 |
| GCAGTCTTTG | 0.9936 ± 0.0046 |
| CCGCACTAAG | 3.94 ± 0.74 |
| TTTTCTTATC | 1.02 ± 0.048 |
| TTATACTCTT | 1.01 ± 0.026 |
| CTGTGAGTTT | 1.007 ± 0.0094 |
| TACCCTTCGT | 1.11 ± 0.013 |
| CAGGATCATG | 1.11 ± 0.15 |
| GCTTTGGGAC | 1.25 ± 0.28 |
| TGCGAGGTCA | 1.03 ± 0.022 |
| GATGTTGTGT | 0.9802 ± 0.0091 |
| AGGGTTAGTT | 1.01 ± 0.013 |
| TATTGAGGAG | 1.01 ± 0.011 |
| GTTCTAGGGT | 0.9743 ± 0.0042 |

| Sequence | switch fluorescence ratio |
| --- | --- |
| TTTGGGGCTA | 1.05 ± 0.15 |
| TGCAAGGGAG | 1.0133 ± 0.00021 |
| GGTTTGAAGC | 0.9642 ± 0.008 |
| TGGTGGGGGT | 0.999 ± 0.028 |
| TCAGTTTTTC | 1.013 ± 0.0022 |
| CCGCATTTGT | 2.68 ± 2.4 |
| GCAGCGGGGG | 1.01 ± 0.027 |
| ATTGTTGGAT | 1.013 ± 0.0067 |
| CGGAGGGGGT | 1.016 ± 0.0052 |
| AAACACGTTG | 1.018 ± 0.0094 |
| ACCTAGTGTG | 1.135 ± 0.0024 |
| AAGGAAACAC | 1.96 ± 1.3 |
| CCGTAGGAGG | 1 ± 0.021 |
| ACTGTAAGGC | 1.07 ± 0.02 |
| TTCGACATGT | 1.025 ± 0.0042 |
| GATTTTGTGC | 1 ± 0.054 |
| AAAGAGCGGG | 1.02 ± 0.061 |
| GGGCATATGG | 1.05 ± 0.015 |
| GGGGGCTTCG | 0.992 ± 0.048 |
| GGGGCGGGCC | 0.971 ± 0.021 |
| TGGCATTGGT | 0.983 ± 0.014 |
| ACTGTACGCA | 1.51 ± 0.086 |
| AGGCACCAAC | 1.16 ± 0.044 |
| GCTGACTGGT | 0.9939 ± 0.001 |
| TCGGAAAGGA | 0.9814 ± 0.0016 |
| AAATTTCATT | 1 ± 0.041 |

| Sequence | switch fluorescence ratio |
| --- | --- |
| AGCGGTTGGG | 0.9966 ± 0.0071 |
| TTTGCCGAGT | 0.996 ± 0.044 |
| TAATGAATGT | 1.02 ± 0.04 |
| GCCAGGATTG | 1.02 ± 0.013 |
| GGGTATTGTG | 0.994 ± 0.033 |
| ACAATGGATG | 0.994 ± 0.041 |
| CTGGGATATA | 1 ± 0.04 |
| TAGAAAGTGT | 1.02 ± 0.019 |
| GGGGTTGAAT | 1.01 ± 0.046 |
| ACTCGGTGGG | 1.01 ± 0.035 |
| TAGTAGTTAT | 0.9858 ± 0.0052 |
| TAGTCTGGT | 0.999 ± 0.016 |
| TGTTGTAGAC | 0.961 ± 0.0098 |
| GGTCAAAGTG | 1.004 ± 0.0058 |
| TCTGTTATCG | 0.983 ± 0.043 |
| ATGACACGGA | 1.04 ± 0.01 |
| ACATGGCATC | 1.05 ± 0.046 |
| AAAAGGTGTA | 0.99 ± 0.0095 |
| GAAAGGGATG | 1.03 ± 0.029 |
| TAGTTGGTAC | 0.9925 ± 0.0083 |
| TTGGCGGGCA | 0.998 ± 0.027 |
| TTGTTCGGTA | 1.02 ± 0.016 |
| GGCTGAAGTT | 0.994 ± 0.022 |
